Test results from the DeepSol protein solubility set.

Assay: soluble on expression in E. coli; label from the status in PepcDB or PDB records

| Sequence | soluble on expression in E. coli |
| --- | --- |
| LYAFFKTMPKGGELHYHLAGGAYPETMLALAANGNYCLDKHTFAVSKDSSHCEGVNVKEVFNNPELYSNIIKDWSMKDFIPGKESGHDHFFNGFIKYMPIVFDYQPQLLADIVQRAAQQKAQYLEIMTIPDNAQSLTYGDLIKDIPSYDQKRRLLLANKDFQSNIQNTVLESDRILTKASQELRCNENPASDSCHVKIKFLYYVLREQPVDNVFAQALNAFEAVSKSKGNLIGVNLVQPEDGIISLRDYQKHMSIFEYLHRIYPNVPITLHAGELSPQAVTPENLSHHIRDALLIGHAQRIGHGVDIGYENNAEDTLKYMANHHIPVEINLISNLKILDISGSNHPLNYYLSHNVPVVLSTDDEGVLRTDLTQQYVEAAKEHGLSYQQLKQINRNTLTYSFLPGKSIWANADKAELVPDCHDLGSKSCQKFIAHNEKAKLQWNLEQQLIAFEKS | not soluble |
| MGSDKIHHHHHHMKQDRRKLFVLDTNVLLHEPLAIYSFKEHDVVIPMTVLEELDNIKDRKHDISRDARVAIRALEDILGGPTTPEQILKGVPLPSREGHLDVAGSLSIFPDHQVDFIAGALPGDNNDNLIINVALHLQKVHKPRTVVLVTKDINMRLKAKGAGIEKVEDYRTDQLIDDIRFLAKGFYQFEGDFWSKLDKVTTERQGKHTIHHVPIAALGKEAFYLNQYLLDDEANFCGRITGKTDTQLDIIDLGRDRLNHIEAWGIKPKNIYQGMALNALLDPEIDLVILTGPAGCGKTLLAIAAALELVVERKRYDKIIVTRNTPEIAESIGFLPGTEEEKMAPWLAAITDTLEVLHKNDVNPSGSMNYIMEKANIQFKSINFMRGRSIQNSVVLLDECQNLTASQIKTMITRMGEGTKLICCGNLSQIDSTYLTAVTSGLTYIVERFKDFEGSANVYLNGVVRSRLAEYAEEHL | not soluble |
| MSLTILAIDTSNYTLGIALLREDTVIAEYITYLKKNHSVRAMPAVHSLLNDCDMAPQDLSKIVVAKGPGSYTGVRIGVTLAKTLAWSLDIPISAVSSLETLAANGRHFDGLISPIFDARRGQVYTGLYQYKNGLLEQVVPDQNVMLADWLEMLKEKDRPVLFLGHDTSLHKQMIEDVLGTKGFIGTAAQHNPRPSELAFLGKEKEAADVHGLVPDYLRLAEAEAKWIESQKEGHHHHHH | soluble |
| MGSDKIHHHHHHSEDTMDRINKDHDHTTSVASRFILADVITSTAFSNASGDINTYASSYIEYEVGVDNQLYYAEVRENEPSSSSTFNNSWNGIYSSLKNARIIIDQCGEGGRDHGNDVTRGMAEVMAAYNCALIADFFGDAPCSQAALVDEKGSPVYMTPKMDTQQEIYTQIISYLDDAIANLQKEDLADVTEQDFLYAGDADKWLKFAYGLKARYTMRLINRSSNKSADYEKVLDYVSKSFTSADDQAAFDIYDSNNINPFYGFYNSRAGFGASTSLGTKLLAYNDPRANRAFFTPIVDKKRSQVAANDPSLVPAPNGSPDQSTSKYGISAFVYAKTAPTLLMSYHELMFLKAEALCRLNRDAEDALKEAVVAGLLNAENSISIAIKELGSGLNTNSSEVITETSAGKYFDDVVKAKYAANPLQETMIQKYLAMWGASGEATETYNDFRRMKGLNENFITLTNPNNSSKFPLRYPYGNSDTAANPEVKAAYGNGDYVYSEPVWWAGGSR | not soluble |
| NAVNWGMREYKIYPYELLLVTTRGRNRLPKDVDRTRLERHLSQEEFYQVFGMTISEFDRLALWKRNELKKQARLF | soluble |
| MSLDKGTVDGRLYQLFKTCIQGINSPLSSVALRSDFYILANHYLSRVLSDQVGSEKVLQDLRLGSKKLVEIIWNDVVYGEGTSRVTGILLLDSLIQLANRSKENFILDSLMKTTRLLLIIRSLKNTDALLNSTTEHINIDDLLYELTAFKATVFFLIRVAETRGGASALIENNLFRIIAELSFLKVDPDLGLDLMFDEVYVQNSKFLKVNVTLDNPLLVDKDANGVSLFELIVPIFQLISAVLVSMGSSNKAVVQTVKGLLNTYKRLVIGIFKRDLLREKEDKKNSSDPNNQSLNEMVKLIVMLCTLTGYQNNDEGHHHHHH | not soluble |
| MMSNRSDFIVPDEAAVKRAASVNFHLEPLRPWLDDPQITEVCVNRPGEVFCERASAWEYYAVPNLDYEHLISLGTATARFVDQDISDSRPVLSAILPMGERIQIVRPPACEHGTISVTIRKPSFTRRTLEDYAQQGFFKHVRPMSKSLTPFEQELLALKEAGDYMSFLRRAVQLERVIVVAGETGSGKTTLMKALMQEIPFDQRLITIEDVPELFLPDHPNHVHLFYPSEAKEEENAPVTAATLLRSCLRMKPTRILLAELRGGEAYDFINVAASGHGGSITSCHAGSCELTFERLALMVLQNRQGRQLPYEIIRRLLYLVVDVVVHVHNGVHDGTGRHISEVWYDPNTKRALSLQHSEKT | soluble |
| MGSDKIHHHHHHMPTLEPKIPGISLNYVVPTPEPELLTGVPVFFGLVTEEVKEAKKLTLATHFQQYFGQAKGYLADAIKGFFENGGRLCYVIALSNNTLEALQQGLETSEVLENIDLICVPDIMLGSDGEVIQMQQAILKHCEQMGDRFAILDALNDIGKLNEQRKRISSQNGALYAPWLKVEFRVDPIPACGHIAGIYASCDRTVGVHGAPANIPLAGVLDLSFSLTPTDQEQLNPKNEAGVNCIRSFQGRGMRVWGVRTLSPIPEWQYVNVRRLFLTFGRWVNRNLADTVFEPNAFPLWVRLQRELSIYCESLWRQGAIQGALPQEAFYVKCDAETNPPENREMGQVIAEIGLAPTIPGEFIQLLVVQSSSGITLT | not soluble |
| MAHHHHHHMGKYAVVVIGPAGSGKSTLCTVVAEHYATKGRSTHICNFDPAAEDLPYDPSIDIRELISLEDAMEGKGLGPNGGLVFCMEYLLGQGEVWLCDQLGDHEEDFIIVDMPGQLEVLSHIPAVPGFVRLLERSGFHVVVLFLLDALAATADAGKFVSGCTFALSCMVCFECPFMNVLTKCDLLPPAIREEALDHFCTCDFDYLNTKPLPERWREMVRTLAAVIFDFNLVTFRPMDNTDVAYVGNLCYLIDEALQVVDDAEVNDRDLPDASEAGEAVEDTMDWKHY | not soluble |
| MAFEFKLPDIGEGIHEGEIVKWFVKPGDEVNEDDVLCEVQNDKAVVEIPSPVKGKVLEILVPEGTVATVGQTLITLDAPGYENMTFKGQEQEEAKKEEKTETVSKEEKVDAVAPNAPAAEAEAGPNRRVIAMPSVRKYAREKGVDIRLVQGTGKNGRVLKEDIDAFLAGGAKPAPAAAEEKAAPAAAKPATTEGEFPETREKMSGIRRAIAKAMVHSKHTAPHVTLMDEADVTKLVAHRKKFKAIAAEKGIKLTFLPYVVKALVSALREYPVLNTSIDDETEEIIQKHYYNIGIAADTDRGLLVPVIKHADRKPIFALAQEINELAEKARDGKLTPGEMKGASCTITNIGSAGGQWFTPVINHPEVAILGIGRIAEKPIVRDGEIVAAPMLALSLSFDHRMIDGATAQKALNHIKRLLSDPELLLMEA | soluble |
| MGSDKIHHHHHHMKISTHELIAVVSQFNPWWRGESIQDLPTWHRAAYQELELWLIKPPVPRAIFLSGARQIGKTTLLLQAIDKLLKEGVKPGNILYVTFDHPLIKMSDIDAVLEAWREREPKTGDLEYIFIDEAQFMRSWGTWIKHQVDFSKSRRIFFTGSATPIIEADQESGVGRWHTIRLTTLSFYEYLQIKKIDLPQLPTVKTLRELFEWPQQEFYKVKELAVHYVGHFHEYLLRGGFPQTAQVENITQAQRLLREDIIDKVLKRDMTALFGVRRILELEQTFLYLCMHDGGLLDMTDLCSNLEVKRPTIQNYIFLLEATNLIYRLPPFGYGKDILRAKYKIYLADAAIAPAVLLKDKSILDDPESLGIATETAVFKHLFARYYSQNVRFSYWRGTKDHEVDVVAQIGDQIIPFEVKYRSQHTNAKALKGLLELCKKKSIAHGYVVTKSLDDFGIMKALPEIKTNIMQIPAPLLCYWMGESELRQTFGV | not soluble |
| EQSSSEIKIVRDEYGMPHIYANDTWHLFYGYGYVVAQDRLFQMEMARRSTQGTVAEVLGKDFVKFDKDIRRNYWPDAIRAQIAALSPEDMSILQGYADGMNAWIDKVNTNPETLLPKQFNTFGFTPKRWEPFDVAMIFVGTMANRFSDSTSEIDNLALLTALKDKYGVSQGMAVFNQLKWLVNPSAPTTIAVQESNYPLKFNQQNSQTAALLPRYDLPAPMLDRPAKGADGALLALAAGKNRETIAAQFAQGGANGLAGY | soluble |
| LSCLTPDNKPGKCVNIKKCTHLAEIEEDPIGEDETTYLKNSVCAGPEDNSVCCG | soluble |
| LFRRWVIYIIRLYQRWISPLKTMPSCRFYPTCSQYAIDAVGRYGVIKGGFMALKRILKCHPFHPGGYDPVK | soluble |
